Experimental data: US20260256782

Tested on: ZF3-KRAB (MR-32054 bicistronic component) (synthetic construct)
Assay: cell_activity
Conditions: 48 h, 0.5 ug/ml, combined effect with ZF9-MQ1, binding not measured directly

Chain of ZF3-KRAB (MR-32054 bicistronic component) (synthetic construct) (chain, as listed by the source): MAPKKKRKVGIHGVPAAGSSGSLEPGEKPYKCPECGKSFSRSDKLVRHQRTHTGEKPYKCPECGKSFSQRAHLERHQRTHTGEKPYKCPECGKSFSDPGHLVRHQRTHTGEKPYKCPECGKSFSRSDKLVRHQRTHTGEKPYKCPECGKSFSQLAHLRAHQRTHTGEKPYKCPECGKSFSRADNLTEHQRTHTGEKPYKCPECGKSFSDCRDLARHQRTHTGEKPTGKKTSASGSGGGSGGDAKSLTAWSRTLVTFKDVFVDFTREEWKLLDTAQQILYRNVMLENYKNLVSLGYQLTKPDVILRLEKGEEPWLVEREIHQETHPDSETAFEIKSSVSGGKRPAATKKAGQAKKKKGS

MYC upstream anchor (CTCF) ZF3 target site
activity (% MYC protein reduction) (H1975 cells): 30
activity (% MYC protein reduction) (PC9 cells): 47
